Experimental data from US20210388087A1 (Chugai, published 2021).

T1: Human CD3eg linker (human)
T1 construct: Single chain: epsilon and gamma subunits of human CD3 joined by a 29-mer linker, Flag-tag at the C-terminus; also called recombinant human CD3
T1 chain: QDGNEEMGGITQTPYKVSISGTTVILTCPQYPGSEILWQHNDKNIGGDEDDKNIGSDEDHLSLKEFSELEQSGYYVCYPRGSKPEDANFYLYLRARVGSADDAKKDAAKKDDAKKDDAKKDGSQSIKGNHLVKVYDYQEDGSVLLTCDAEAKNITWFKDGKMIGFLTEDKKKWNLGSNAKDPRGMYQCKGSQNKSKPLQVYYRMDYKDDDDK


Target: T1, Human CD3eg linker
Assay: Biacore SPR, vs template H183/L072

Binder	fold change of affinity
H183/L072 VH S62I (antibody, name in Kabat numbering, V domains shown) VH: QVQLVESGGGLVQPGRSLRLSCAASGFTFSNAWMHWVRQAPGKGLEWVAQIKDKGNAYAAYYAPIVKGRFTISRDDSKNSIYLQMNSLKTEDTAVYYCHYVHYASASTVLPAFGVDAWGQGTTVTVSS VL: DIVMTQSPLSLPVTPGEPASISCQASQELVHMNRNTYLHWYQQKPGQAPRLLIYKVSNRFPGVPDRFSGSGSGTDFTLKISRVEAEDVGVYYCAQGTSVPFTFGQGTKLEIK	1.4 fold
H183/L072 VH S62P (antibody, name in Kabat numbering, V domains shown) VH: QVQLVESGGGLVQPGRSLRLSCAASGFTFSNAWMHWVRQAPGKGLEWVAQIKDKGNAYAAYYAPPVKGRFTISRDDSKNSIYLQMNSLKTEDTAVYYCHYVHYASASTVLPAFGVDAWGQGTTVTVSS VL: DIVMTQSPLSLPVTPGEPASISCQASQELVHMNRNTYLHWYQQKPGQAPRLLIYKVSNRFPGVPDRFSGSGSGTDFTLKISRVEAEDVGVYYCAQGTSVPFTFGQGTKLEIK	1.3 fold
H183/L072 VH S99A (antibody, name in Kabat numbering, V domains shown) VH: QVQLVESGGGLVQPGRSLRLSCAASGFTFSNAWMHWVRQAPGKGLEWVAQIKDKGNAYAAYYAPSVKGRFTISRDDSKNSIYLQMNSLKTEDTAVYYCHYVHYAAASTVLPAFGVDAWGQGTTVTVSS VL: DIVMTQSPLSLPVTPGEPASISCQASQELVHMNRNTYLHWYQQKPGQAPRLLIYKVSNRFPGVPDRFSGSGSGTDFTLKISRVEAEDVGVYYCAQGTSVPFTFGQGTKLEIK	1 fold
H183/L072 VH S62M (antibody, name in Kabat numbering, V domains shown) VH: QVQLVESGGGLVQPGRSLRLSCAASGFTFSNAWMHWVRQAPGKGLEWVAQIKDKGNAYAAYYAPMVKGRFTISRDDSKNSIYLQMNSLKTEDTAVYYCHYVHYASASTVLPAFGVDAWGQGTTVTVSS VL: DIVMTQSPLSLPVTPGEPASISCQASQELVHMNRNTYLHWYQQKPGQAPRLLIYKVSNRFPGVPDRFSGSGSGTDFTLKISRVEAEDVGVYYCAQGTSVPFTFGQGTKLEIK	1.3 fold

Results, then the binder that gave them:

fold change of affinity	Binder
0.9 fold	H183/L072 VH S99M (antibody, name in Kabat numbering, V domains shown) VH: QVQLVESGGGLVQPGRSLRLSCAASGFTFSNAWMHWVRQAPGKGLEWVAQIKDKGNAYAAYYAPSVKGRFTISRDDSKNSIYLQMNSLKTEDTAVYYCHYVHYAMASTVLPAFGVDAWGQGTTVTVSS VL: DIVMTQSPLSLPVTPGEPASISCQASQELVHMNRNTYLHWYQQKPGQAPRLLIYKVSNRFPGVPDRFSGSGSGTDFTLKISRVEAEDVGVYYCAQGTSVPFTFGQGTKLEIK
0.7 fold	H183/L072 VH S99I (antibody, name in Kabat numbering, V domains shown) VH: QVQLVESGGGLVQPGRSLRLSCAASGFTFSNAWMHWVRQAPGKGLEWVAQIKDKGNAYAAYYAPSVKGRFTISRDDSKNSIYLQMNSLKTEDTAVYYCHYVHYAIASTVLPAFGVDAWGQGTTVTVSS VL: DIVMTQSPLSLPVTPGEPASISCQASQELVHMNRNTYLHWYQQKPGQAPRLLIYKVSNRFPGVPDRFSGSGSGTDFTLKISRVEAEDVGVYYCAQGTSVPFTFGQGTKLEIK
0.8 fold	H183/L072 VH S99L (antibody, name in Kabat numbering, V domains shown) VH: QVQLVESGGGLVQPGRSLRLSCAASGFTFSNAWMHWVRQAPGKGLEWVAQIKDKGNAYAAYYAPSVKGRFTISRDDSKNSIYLQMNSLKTEDTAVYYCHYVHYALASTVLPAFGVDAWGQGTTVTVSS VL: DIVMTQSPLSLPVTPGEPASISCQASQELVHMNRNTYLHWYQQKPGQAPRLLIYKVSNRFPGVPDRFSGSGSGTDFTLKISRVEAEDVGVYYCAQGTSVPFTFGQGTKLEIK
1.5 fold	H183/L072 VH S62L (antibody, name in Kabat numbering, V domains shown) VH: QVQLVESGGGLVQPGRSLRLSCAASGFTFSNAWMHWVRQAPGKGLEWVAQIKDKGNAYAAYYAPLVKGRFTISRDDSKNSIYLQMNSLKTEDTAVYYCHYVHYASASTVLPAFGVDAWGQGTTVTVSS VL: DIVMTQSPLSLPVTPGEPASISCQASQELVHMNRNTYLHWYQQKPGQAPRLLIYKVSNRFPGVPDRFSGSGSGTDFTLKISRVEAEDVGVYYCAQGTSVPFTFGQGTKLEIK
